Reference: patent publication US20060269550A1 (published 2006)
Where no end group is shown, it is not given here. The star is where a group is joined. Octanoyl = CCCCCCCC(=O)*

B1: Ghrelin (1-8), the first eight amino acids of human ghrelin acylated, via an ester linkage, with an octanoyl group on the serine at position 3 (peptide)
peptide: GSS(Octanoyl)FLSPE
notes: also called human ghrelin amino acids 1-8 acylated with octanoic acid
B3: anti-hGhrelin Fab 2291 (Fab, V domains shown)
VH: EIQLQQSGAELMKPGASVKLSCKATGYTFTGYWIEWAKQRPGHGLEWIGEILPGSGSTNYNEKFKGKATFTADTSSNTANMQLSSLTTEDSAIYYCARYPQFRLRRERIAYWGQGTLVTVSV
VL: DLVLTQSPASLAVSLGQRATISCRASKSVSTSGYSYMHWYQQKPGQPPKLLIYLASNLEPGVPARFSGSGSGTDFTLNIHPVEEEDAATYYCQHSRELPYTFGAGTKLELKR
notes: Mouse Fab, kappa light chain

Legend:
anti-hGhrelin Fab 2291 [1] = biological target: B3; experiment: competitive ELISA; competitor at 1 µg/ml preincubated with Fab 2291 0.1 µg/ml, OD of Fab bound to BSA-hGhrelin wells
Protocol: (§1) Each well of a 96-well plate was coated with 60 μl BSA-hGhrelin antigen (i.e., BSA conjugated, full-length, acylated human ghrelin, 2 μg/ml in carbonate buffer, pH 9.6). The plate was incubated at 4° C. overnight. The wells were aspirated and washed twice with washing buffer (20 mM Tris-Cl, pH 7.4, 0.15 M NaCl, 0. 1% Tween 20). Compounds (i.e., human ghrelin or ghrelin analogs) were diluted into antibody solution. The antibody solution was mouse-anti-human ghrelin Fab. The ghrelin competitor concentration was varied as listed in Tables 2 and 3 below, but the Fab-concentration was kept constant at 0.1 μg/ml in blocking solution (10 mg/ml BSA in wash buffer). After a 1 hour incubation at room temperature, 50 μl of compound-antibody solution was added to BSA-hGhrelin coated wells in triplicate. The plates were incubated for 1 hour at room temperature. The wells were then washed three times with washing buffer.
(§2) Peroxidase-conjugated secondary antibody (50 μl goat anti-mouse kappa HRP (Southern Biotech), diluted 1:2000 in blocking buffer) was added to each well and incubated for 1 hour at room temperature. The wells were then washed 4 times with washing buffer. Fifty microliters of chromogenic substrate (i.e., OPD substrate) was added to each well and allowed to develop at room temperature for 10 minutes. […] The absorbance of the wells was read at 490 nm. […]

anti-hGhrelin Fab 2291 [2] = biological target: B3; experiment: competitive ELISA; competitor at 5 µg/ml preincubated with Fab 2291 0.1 µg/ml, OD of Fab bound to BSA-hGhrelin wells
Protocol: as §1, §2

anti-hGhrelin Fab 2291 [3] = biological target: B3; experiment: competitive ELISA; competitor at 0.2 µg/ml preincubated with Fab 2291 0.1 µg/ml, OD of Fab bound to BSA-hGhrelin wells
Protocol: as §1, §2

[4] = biological target: T1, full-length human ghrelin acylated with an octanoyl group on the serine at position 3 (human, n-octanoyl group on Ser 3); experiment: cell-based or functional assay
T1 sequence (peptide, as listed by the source): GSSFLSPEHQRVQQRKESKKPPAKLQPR

[5] = biological target: B1; experiment: inferred by the filing from inhibition of the analog in the FLPR calcium assay
[6] = biological target: T1, full-length human ghrelin acylated with …; experiment: SPR, BIAcore 2000, 25 C; Fab captured by goat anti-mouse kappa, ghrelin as analyte; koff/kon, average of three
Protocol: (§3) The BIAcore® utilizes the optical properties of surface plasmon resonance to detect alterations in protein concentration of interacting molecules within a dextran biosensor matrix. Except where noted, all reagents and materials were purchased from BIAcore® AB (Upsala, Sweden). All measurements were performed at 25° C. Samples containing rat or human ghrelin (full length, acylated) were dissolved in HBS-EP buffer (150 mM sodium chloride, 3 mM EDTA, 0.005% (w/v) surfactant P-20, and 10 mM HEPES, pH 7.4). A capture antibody, goat anti-mouse Kappa (Southern Biotechnology, Inc), was immobilized onto flow cells using amine-coupling chemistry. Flow cells (1-4) were activated for 7 minutes with a 1:1 mixture of 0.1 M N-hydroxysuccinimide and 0.1 M 3-(N,N-dimethylamino)propyl-N-ethylcarbodiimide at a flow rate of 10 μl/min. Goat anti-mouse Kappa (30 μg/mL in 10 mM sodium acetate, pH 4.5) was manually injected over all 4 flow cells at a flow rate of 10 μL/min. The surface density was monitored and additional goat anti-mouse Kappa was injected if needed to individual cell until all flow cells reach a surface density of 4500-5000 response units (RU). Surfaces were blocked with a 7 minute injection of 1 M ethanolamine-HCl, pH 8.5(10 μL/min). To ensure complete removal of any noncovalently bound goat anti-mouse Kappa, 15 μL of 10 mM glycine, pH 1.5 was injected twice. Running buffer used for kinetic experiments contained 10 mM HEPES, pH 7.4, 150 mM NaCl, 0.005% P20.
(§4) Collection of kinetic binding data was performed at maximum flow rate (100 μL/min) and a low surface density to minimize mass transport effects.

[7] = biological target: T2, rat ghrelin (full length, acylated) (rat, UniProt Q9QYH7 24-51, acylated (group and position not restated for the rat peptide)); experiment: SPR, BIAcore 2000, 25 C; Fab captured by goat anti-mouse kappa, rat ghrelin as analyte; koff/kon, average of three
T2 construct: mature; the assay used the full-length ghrelin peptide
T2 peptide (looked up): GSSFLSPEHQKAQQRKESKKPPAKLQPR
Protocol: as §3, §4

B1 was tested, and the “Ave. OD” value (anti-hGhrelin Fab 2291 [1]) was 0.127 OD, the “Ave. OD” value (anti-hGhrelin Fab 2291 [2]) was 0.065 OD and the “Ave. OD” value (anti-hGhrelin Fab 2291 [3]) was 0.399 OD.

B2: anti-hGhrelin Fab 2891 (Fab, V domains shown)
VH: EIQLQQSGAELMKPGASVKLSCKATGYTFTGYWIEWVKQRPGHGLEWIGEILPGSGSTNYNEKFKGKATFTADTSSNTANMQLSSLTTEDSAIYYCARYPQFRLRRERIAYWGQGTLVTVSV
VL: DLVLTQSPASLAVSLGQRATISCRASKSVSTSGYSYMHWYQQKPGQPPKLLIYLASNLESGVPARFSGSGSGTDFTLNIHPVEEEDAATYYCQHSRELPYTFGAGTKLELKR
notes: Mouse Fab, kappa light chain
For B2, the “IC50 (nM), FLPR calcium assay on AV12 cells expressing human GHS-R1a” value (“IC50 (nM), FLPR calcium assay” below) [4] was 0.9 nM, the binding result [5] was “binds” and the Kd [6] was 1.01 nM. It also gave a Kd [7] of 1.16 nM.

With B3 the “IC50 (nM), FLPR calcium assay” value [4] was 0.8 nM, the binding result [5] was “binds” and the Kd [6] was 1.08 nM. The Kd [7] was 1.68 nM.

B4: anti-hGhrelin Fab 1111 (Fab, V domains shown)
VH: EIQLQQSGAELMKPGASVKLSCKATGYIFTGYWIEWVKQRPGHGLEWIGEILPGSGSTNYNEKFKGKATFTADTSSNTANMQLSSLTTEDSAIYYCARYPQFRLRRERIAYWGQGTLVTVSV
VL: DLVLTQSPASLAVSLGQRATISCRASKSVSTSGYSYMHWYQQKPGQPPKLLIYLASNLESGVPARFSGSGSGTDFTLNIHPVEEEDAATYYCQHSRELPYTFGAGTKLELKR
notes: Mouse Fab from an Omniclonal library (immunised C57Bl/6 mice); kappa light chain (detected or captured with goat anti-mouse kappa)
B4 was tested, and the “IC50 (nM), FLPR calcium assay” value [4] was 1.1 nM, the binding result [5] was “binds” and the Kd [6] was 1.04 nM. It also gave a Kd [7] of 1.14 nM.

B5: anti-hGhrelin Fab 2211 (Fab, V domains shown)
VH: EIQLQQSGAELMRPGASVKLSCKATGYTFTGYWIEWVKQRPGHGLEWIGEILPGSGSTNYNEKFKGKATFTADTSSNTANMQLSSLTTEDSAIYYCARYPQFGLRRERIAYWGQGTLVTVSV
VL: DLVLTQSPASLAVSLGQRATISCRASKSVSTSGYSYMHWYQQKPGQPPKLLIYLASNLESGVPARFSGSGSGTDFTLNIHPVEEEDAATYYCQHSRELPYTFGAGTKLELKR
notes: Mouse Fab, kappa light chain
In the case of B5, the “IC50 (nM), FLPR calcium assay” value [4] is reported as 1.9 nM, the binding result [5] is reported as “binds” and the Kd [6] is reported as 3.38 nM. The Kd [7] was 5.42 nM.
